Measured values published in paper PMC8993412.

How the values were obtained:
[1] = biological target: SARS-CoV-2 Nsp15 (recombinant) (SARS-CoV-2) (UniProt P0DTD1); assay: ELISA
[2] = biological target: SARS-CoV-2 Nsp7 (recombinant) (SARS-CoV-2) (UniProt P0DTD1); assay: ELISA

B1: IgG 16684 (anti-Nsp15) (antibody, V domains shown)
VH: EVQLVESGGGLVQPGGSLRLSCAASGFNFSSSSIHWVRQAPGKGLEWVASIYSSYGYTYYADSVKGRFTISADTSKNTAYLQMNSLRAEDTAVYYCARVSYYYPYSWYFYGYYGGLDYWGQGTLVTVSS
VL: DIQMTQSPSSLSASVGDRVTITCRASQSVSSAVAWYQQKPGKAPKLLIYSASSLYSGVPSRFSGSRSGTDFTLTISSLQPEDFATYYCQQSSYSLITFGQGTKVEIK
EC50 [1]: 0.019 µM

B2: IgG 16658 (anti-Nsp7) (antibody, V domains shown)
VH: EVQLVESGGGLVQPGGSLRLSCAASGFNLSYYSIHWVRQAPGKGLEWVASIYPYYSYTYYADSVKGRFTISADTSKNTAYLQMNSLRAEDTAVYYCARVGFDYWGQGTLVTVSS
VL: DIQMTQSPSSLSASVGDRVTITCRASQSVSSAVAWYQQKPGKAPKLLIYSASSLYSGVPSRFSGSRSGTDFTLTISSLQPEDFATYYCQQYAGLITFGQGTKVEIK
EC50 [2]: 0.13 µM
